B1: ssDNA oso23 (ssDNA)
DNA: AAGCGTGGTGAAACCTACCTCTGATTCGAAACCTTCACTTTACGTGGTCTGGCGTGGTGAATGTTCGTCGGCGTGCTCGA
B2: foDNA oso23/oso18 (dsDNA)
DNA 1: B1 DNA
DNA 2: CCAGGAATACGGCAAGTTGGAGGCCGGGCTGGATGGAGACTAAGCTTTGGAAGTGAAGGTTTCGAATCAGAGGTAGGTTTCACCACGC

Columns and labels:
VcDnaB [1] = target: T1, VcDnaB (Vibrio cholerae, UniProt A0A085R2T8 1-468); test: BLI; 1 mM ATP?; 100 nM VcDnaB + 25-100 nM VcDciA; loading increased, maximal at 25 nM; BLI: 50 mM Hepes pH 7.0, 150 mM NaCl, 0.1% Tween, 1 mM ATP, temperature not stated; NMR: 20 mM phosphate pH 5.6, 50 mM NaCl, 303 K (also 293 K), 26 uM protein; conditions: protein: recombinant; chain copies: 6; label: 5' biotin
VcDnaB [2] = target: T1, VcDnaB; test: BLI; ATP; + VcDciA 25-100 nM; comparable to ssDNA; BLI: 50 mM Hepes pH 7.0, 150 mM NaCl, 0.1% Tween, 1 mM ATP, temperature not stated; NMR: 20 mM phosphate pH 5.6, 50 mM NaCl, 303 K (also 293 K), 26 uM protein; conditions: protein: recombinant; chain copies: 6; label: 5' biotin on strand 1; fork, 38 nt hybridized zone; non-complementary tails (strand 1 3' side, strand 2 5' side); 5' overhang 2 nt (AA) of strand 1

Binder	binding result (VcDnaB [1])	binding result (VcDnaB [2])
B1	binds	
B2		binds
